Test results: publication PMC7876548

Target: unmethylated D2 peptide (amino acids 208-243 of the third intracellular loop of the human D2 receptor) (human) (UniProt P14416)
Test: fluorescence polarisation; anisotropy; fluorescently labelled D2 peptide at 0.025 µM final, Par-4 or CaM added from 10x stocks of 0-20 µM; 200 mM NaCl, 200 µM CaCl2, 50 mM Tris pH 7.5; room temperature, ten minutes; average of four trials

Sequence of unmethylated D2 peptide (amino acids 208-243 of the third intracellular loop of the human D2 receptor) (human) (P14416 208-243): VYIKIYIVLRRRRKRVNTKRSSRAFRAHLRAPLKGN

Kd: 21.6 nM
Substance: human Par-4 (prostate apoptosis response 4 protein) (from UniProt Q96IZ0 1-340) (natural protein)
